In patent publication US20130331333A1 (HADASIT MEDICAL RESEARCH SERVICES AND DEVELOPMENT, published 2013):
Substitutions are numbered along the chain they refer to. Values belong to the binder of their own block, whether it stands above or below them.

T1: Etk/Bmx (epithelial tyrosine kinase), wild type (UniProt P51813 1-675)
T1 construct: Plasmids after Tsai et al. 2000; also called wt-Etk
T1 sequence (looked up): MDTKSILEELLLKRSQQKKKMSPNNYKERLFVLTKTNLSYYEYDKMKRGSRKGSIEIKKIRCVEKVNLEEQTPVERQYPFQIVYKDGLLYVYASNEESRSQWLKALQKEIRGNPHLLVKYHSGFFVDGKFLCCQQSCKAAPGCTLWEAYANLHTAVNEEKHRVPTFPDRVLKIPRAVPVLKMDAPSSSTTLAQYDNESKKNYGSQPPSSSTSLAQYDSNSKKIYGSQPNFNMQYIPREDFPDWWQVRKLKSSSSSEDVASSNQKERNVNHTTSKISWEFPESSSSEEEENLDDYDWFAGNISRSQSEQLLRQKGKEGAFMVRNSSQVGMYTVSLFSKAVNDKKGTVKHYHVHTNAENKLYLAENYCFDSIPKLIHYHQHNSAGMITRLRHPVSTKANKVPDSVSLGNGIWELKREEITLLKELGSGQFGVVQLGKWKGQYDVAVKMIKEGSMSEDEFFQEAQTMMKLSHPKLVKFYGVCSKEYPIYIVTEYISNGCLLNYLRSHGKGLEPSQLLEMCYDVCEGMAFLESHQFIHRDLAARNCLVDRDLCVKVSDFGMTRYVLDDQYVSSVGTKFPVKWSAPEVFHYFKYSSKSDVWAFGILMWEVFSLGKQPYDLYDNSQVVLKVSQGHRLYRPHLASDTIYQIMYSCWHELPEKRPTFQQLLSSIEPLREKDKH

T2: T7-tagged Etk/Bmx (UniProt P51813 1-675)
T2 construct: not shown: T7 tag
T2 sequence (looked up): T1 sequence (looked up)

T3: wild-type protease-activated receptor 2 (wt hPar2) (human, UniProt P55085 37-397)
T3 construct: whole, on cells; Species read from the name hPar2
T3 sequence (looked up): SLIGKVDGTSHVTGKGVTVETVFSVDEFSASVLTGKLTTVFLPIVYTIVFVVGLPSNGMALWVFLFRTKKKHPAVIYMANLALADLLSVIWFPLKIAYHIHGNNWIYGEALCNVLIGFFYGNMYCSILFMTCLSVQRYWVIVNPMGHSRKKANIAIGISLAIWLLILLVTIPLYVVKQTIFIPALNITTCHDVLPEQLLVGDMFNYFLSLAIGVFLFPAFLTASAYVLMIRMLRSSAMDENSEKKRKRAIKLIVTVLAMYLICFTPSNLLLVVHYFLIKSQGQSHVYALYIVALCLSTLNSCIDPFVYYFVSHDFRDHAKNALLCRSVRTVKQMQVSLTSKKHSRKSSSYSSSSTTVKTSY

T4: HA-tagged mutant hPar1-7A (human, UniProt P25116 42-425)
T4 construct: whole, on cells; Tested in lysates of transfected cells; also called HA-hPar1-7A; PAR1A7; not shown: HA tag
T4 sequence (looked up): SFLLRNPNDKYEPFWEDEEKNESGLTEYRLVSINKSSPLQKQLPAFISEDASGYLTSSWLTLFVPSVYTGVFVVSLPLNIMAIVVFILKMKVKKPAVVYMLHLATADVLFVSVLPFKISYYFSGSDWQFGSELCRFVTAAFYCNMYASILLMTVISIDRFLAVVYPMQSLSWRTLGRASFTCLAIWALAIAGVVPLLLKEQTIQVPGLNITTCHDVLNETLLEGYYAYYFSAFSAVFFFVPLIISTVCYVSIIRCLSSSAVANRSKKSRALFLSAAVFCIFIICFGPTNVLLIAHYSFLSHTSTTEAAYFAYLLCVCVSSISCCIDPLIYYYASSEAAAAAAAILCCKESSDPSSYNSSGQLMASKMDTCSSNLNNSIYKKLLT

B1: wild-type human protease-activated receptor 1 (wt hPar1) (receptor, UniProt P25116 42-425, looked up)
chain: T4 sequence (looked up) with A337C, A338Q, A339R, A340Y, A341V, A342Y, A343S
notes: whole, on cells; Tested as protein in cell lysates (pull-down, co-immunoprecipitation, antibody array)
B2: HA-tagged wt hPar1 (receptor, human, UniProt P25116 42-425, looked up)
chain: T4 sequence (looked up) with A337C, A338Q, A339R, A340Y, A341V, A342Y, A343S
notes: whole, on cells; Tested in lysates of transfected cells; also called HA-wt hPar1; HA-wthPar1; not shown: HA tag added downstream of the ATG start codon
B3: GST-PH-Etk/Bmx (other, UniProt P51813 1-111, looked up)
chain: MDTKSILEELLLKRSQQKKKMSPNNYKERLFVLTKTNLSYYEYDKMKRGSRKGSIEIKKIRCVEKVNLEEQTPVERQYPFQIVYKDGLLYVYASNEESRSQWLKALQKEIR
notes: domain: PH domain; Made as in Chen et al. 2001; also called GST-Etk-PH; GST-Etk/Bmx; not shown: GST tag
B4: GST-PH-Vav3 (other, UniProt Q9UKW4 400-502, looked up)
chain: RPQGDGEIRITTLDKHTKQERHIFLFDLAVIVCKRKGDNYEMKEIIDLQQYKIANNPTTDKENKKWSYGFYLIHTQGQNGLEFYCKTKDLKKKWLEQFEMALS
notes: domain: PH domain; also called PH-domain-Vav3; Vav3-PH-domain; not shown: GST tag

Key:
c-Yes = c-Yes (UniProt P07947 2-543); assay: antibody array with MDA-MB-435 lysates before and after PAR1 activation, biotinylated anti-PAR1 detection
Chain of c-Yes (P07947 2-543 limits assumed): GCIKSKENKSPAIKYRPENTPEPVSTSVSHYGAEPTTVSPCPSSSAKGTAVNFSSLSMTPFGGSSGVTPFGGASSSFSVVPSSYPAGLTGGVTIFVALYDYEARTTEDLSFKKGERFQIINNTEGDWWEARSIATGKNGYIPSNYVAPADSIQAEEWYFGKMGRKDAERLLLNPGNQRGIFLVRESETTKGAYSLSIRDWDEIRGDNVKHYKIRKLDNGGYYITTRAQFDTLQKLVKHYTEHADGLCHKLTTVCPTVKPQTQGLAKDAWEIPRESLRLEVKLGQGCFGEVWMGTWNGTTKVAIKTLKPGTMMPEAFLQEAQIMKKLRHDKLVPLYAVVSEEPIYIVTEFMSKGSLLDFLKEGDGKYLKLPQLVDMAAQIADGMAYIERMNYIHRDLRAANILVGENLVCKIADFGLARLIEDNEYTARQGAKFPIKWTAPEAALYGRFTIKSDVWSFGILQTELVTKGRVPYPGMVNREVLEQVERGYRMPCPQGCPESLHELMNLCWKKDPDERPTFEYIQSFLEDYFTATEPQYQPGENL
Method: (§1) Antibody array: A custom-made antibody array (hypromatrix) containing thirty antibodies against various proteins was prepared (FIG. 1). The antibodies were immobilized on a membrane, each at a pre-determined position, while retaining their capabilities of recognizing and capturing antigens as well as antigen-associated proteins. MDA-MB-435 cells were activated for 10 min with thrombin (1 U/ml). Untreated or activated cells were lysed with Triton extraction solution: 15 mM Tris, pH 7.5, 120 mM NaCl, 25 mM KCl, 2 mM EGTA, 2 mM EDTA, 0.1 mM DTT, 0.5% Triton X-100, […] and 0.5 mM PMSF. Protein extract was incubated on pre-blocked membrane for 2 h at room temperature. The antibody array was washed with TBST and incubated with biotinylated PAR₁ antibody (ATAP) for 2 h at room temperature. The antibody array was washed again with TBST, and the membrane was incubated with HRP-conjugated streptavidin for 1 h. Protein-protein interactions were detected by ECL and exposure to X-ray film.
(§2) To detect the putative mediator(s) linking PAR1 to potential signaling proteins, custom-made antibody-array membranes were examined. Aggressive breast carcinoma MDA-MB-435 cells (with high hPar1 levels) were incubated with the antibody-array membranes before and after PAR₁ activation (15 minutes). […]

[1] = target: T1, Etk/Bmx (epithelial tyrosine kinase), …; assay: as above
Method: as §1, §2

T7-tagged Etk/Bmx = target: T2, T7-tagged Etk/Bmx; assay: anti-HA immunoprecipitation, anti-T7 blot
[2] = target: B1; assay: cell lysates on GST-Etk-PH column, anti-PAR1 blot
Method: The IP was performed using anti-PAR1 (ATAP, Santa Cruz, Calif.). FIGS. 7B and 7C are photographs of gels showing peptide competition for PAR1 binding to GST-PH-Etk/Bmx.
GST fusion protein columns. Fusion proteins were purified from transformed Escherichia coli bacteria that had been stimulated with isopropyl-β-D-thio-galactopyranoside (IPTG) at a concentration of […]. Bacteria were lysed according to published procedures, and then immobilized on glutathione Sepharose beads (Pharmacia). Briefly, MDA-MB-435 cell lysates were applied to GST-PAR1C-tail or GST control columns. After 2 h binding periods to the designated protein/s cell lysates to the columns, a washing step was performed. The washes (×3) were carried out using a “wash buffer” including: 100 mM NaCL, 20 mM EDTA, 10 mM Tris, pH 8.0 and 1% Triton ×100. This step was performed in order to wash out all non-specific proteins, leaving the GST-PAR₁-C-tail column firmly bound to targeted cell lysate proteins. Next, elution of bound proteins was performed via the addition of gel “sample buffer” and appropriate boiling. The samples were run electrophoretically on SDS-PAGE gels, followed by immunoblotting with the indicated antibodies and ECL detection. GST-PH-Etk/Bmx. The PH domain in Etk/Bmx was bound to GST column as previously described (Chen R, et al. (2001) Nat Cell Biol. 3: 439-444). […]

[3] = target: T3, wild-type protease-activated receptor 2 …; assay: cell lysates applied on GST immobilized PH-domain columns (PAR2)
HA-tagged wt hPar1 = target: B2; assay: lysates of cells transfected with HA-tag-hPar1 applied on GST-PH-Vav3
Method: GST fusion protein columns. Fusion proteins were purified from transformed Escherichia coli bacteria that had been stimulated with isopropyl-β-D-thio-galactopyranoside (IPTG) at a concentration of […]. Bacteria were lysed according to published procedures, and then immobilized on glutathione Sepharose beads (Pharmacia). Briefly, MDA-MB-435 cell lysates were applied to GST-PAR1C-tail or GST control columns. After 2 h binding periods to the designated protein/s cell lysates to the columns, a washing step was performed. The washes (×3) were carried out using a “wash buffer” including: 100 mM NaCL, 20 mM EDTA, 10 mM Tris, pH 8.0 and 1% Triton ×100. This step was performed in order to wash out all non-specific proteins, leaving the GST-PAR₁-C-tail column firmly bound to targeted cell lysate proteins. Next, elution of bound proteins was performed via the addition of gel “sample buffer” and appropriate boiling. The samples were run electrophoretically on SDS-PAGE gels, followed by immunoblotting with the indicated antibodies and ECL detection. GST-PH-Etk/Bmx. The PH domain in Etk/Bmx was bound to GST column as previously described (Chen R, et al. (2001) Nat Cell Biol. 3: 439-444).
Next, a panel of cell-lines was transfected with HA-tag-hPar1. Cell lysates were prepared and applied onto GST-PH-Akt or GST-PH-Vav₃. […]

[4] = target: T4, HA-tagged mutant hPar1-7A; assay: cell lysates applied on GST-PH-Vav3
Method: GST fusion protein columns. Fusion proteins were purified from transformed Escherichia coli bacteria that had been stimulated with isopropyl-β-D-thio-galactopyranoside (IPTG) at a concentration of […]. Bacteria were lysed according to published procedures, and then immobilized on glutathione Sepharose beads (Pharmacia). Briefly, MDA-MB-435 cell lysates were applied to GST-PAR1C-tail or GST control columns. After 2 h binding periods to the designated protein/s cell lysates to the columns, a washing step was performed. The washes (×3) were carried out using a “wash buffer” including: 100 mM NaCL, 20 mM EDTA, 10 mM Tris, pH 8.0 and 1% Triton ×100. This step was performed in order to wash out all non-specific proteins, leaving the GST-PAR₁-C-tail column firmly bound to targeted cell lysate proteins. Next, elution of bound proteins was performed via the addition of gel “sample buffer” and appropriate boiling. The samples were run electrophoretically on SDS-PAGE gels, followed by immunoblotting with the indicated antibodies and ECL detection. GST-PH-Etk/Bmx. […]
Namely, without wishing to be bound by theory the PAR₁-C-tail appears to be an anchor region for association with PH-domain containing proteins. For this purpose, the association between Akt (which is ubiquitously expressed in the cells) and PAR₁ was analyzed, following activation. […]

[5] = target: T1, Etk/Bmx (epithelial tyrosine kinase), …; assay: Etk/Bmx expressing cell lysates on GST-PAR2 C-tails

Binder: B1
- binding result (c-Yes): binds
- binding result [1]: binds

Binder: B2
- binding result (T7-tagged Etk/Bmx): binds

Binder: B3
- binding result [2]: binds

Binder: B4
- binding result [3]: binds
- binding result (HA-tagged wt hPar1): binds
- binding result [4]: no binding

- binding result [5]: binds
Binder: SHDFRDHAKNALLCRSVRTVKQMQVSLTSKKHSRKSSSYSSSSTTVKTSY (other, human, UniProt P55085 348-397, looked up, domain: PAR2 C-tail; not shown: GST tag) [GST-PAR2 C-tail wt]
